In US20100266530A1:

Target: N-terminal GFP-tagged tail-less hFcRn (ssECTM: signal sequence-GFP-ectodomain-transmembrane domain) stably expressed on HEK293 cells (human) [GFP: P42212]
Assay: flow cytometry on ssECTM cells at pH 7.5, 50 ug/ml hIgG-AF647, no competitor

MFI: 6 MFI
Substance: human IgG (hIgG) (antibody)
